B1: PS1-120: recombinant peptide contained in the amino-terminal region of the Prosystemin polypeptide, free of Systemin; expressed in E. coli (protein)
chain: MGTPSYDIKNKGDDMQEEPKVKLHHEKGGDEKEKIIEKETPSQDINNKDTISSYVLRDDTQEIPKMEHEEGGYVKEKIVEKETISQYIIKIEGDDDAQEKLKVEYEEEEYEKEKIVEKET
modifications: Peptide PS1-120
notes: recombinant peptide contained in the amino-terminal region of the Prosystemin polypeptide, free of Systemin; expressed in E. coli
B2: PS1-70: recombinant peptide contained in the amino-terminal region of the Prosystemin polypeptide, free of Systemin; expressed in E. coli (protein)
chain: MGTPSYDIKNKGDDMQEEPKVKLHHEKGGDEKEKIIEKETPSQDINNKDTISSYVLRDDTQEIPKMEHEE
modifications: Peptide PS1-70
notes: as for B1

What was measured:
[1] = test system: S. littoralis larvae; design: species or system Spodoptera littoralis; conditions: in vivo, po
[2] = test system: B. cinerea; assay type: cell-based, Botrytis cinerea
Protocol: 3, 5 and 8, and Trichoderma T22, (C) PS1-70 and PS1-120. The growth of the fungus was measured 24 hours after the addition of the peptides of the invention as the turbidity level of the medium (absorbance at 600 nm). The letters a, b indicate the statistical significance of the data (ANOVA), each letter representing a statistical group. Furthermore, as shown in FIGS. 22A and 22B, the growth of the B. cinerea fungus was not disrupted when the growth medium was added with the peptides PS1-70 and PS1-120 of the invention.

[3] = test system: Botrytis cinerea; test: Botrytis cinerea necrosis areas on treated eggplant leaves; assay type: in vivo, Botrytis cinerea on Solanum melongena; conditions: day 8, control 11 mm^2 (FIG. 12C)
Source text: The present inventors also carried out tests aimed at determining the effects of exogenous application of the peptides of the invention, at picomolar and femtomolar concentrations, against the development of the necrotrophic fungus on Solanum melongena (eggplant) plants (FIG. 12C) and Vitis vinifera (vine) plants (FIG. 12D). […] The positive effect of the treatment was statistically significant from day 3 of inoculation of the pathogen to day 8 where values of 11 mm^2 were reached on the control leaves, unlike the treated leaves where values of 8.4 and 6.0 mm^2 were recorded on leaves treated with the peptides PS1-70 and PS1-120 at a concentration of 100 pM, and values of 6.2 and 4.10 mm^2 were recorded on leaves treated with said peptides at a concentration of 100 fM (FIG. 12C). Similar results were obtained on vine plants (FIG. 12D). The positive effect of the treatment was already statistically significant from day 1 of inoculation of the pathogen to day 8 where values of 43 mm^2 were reached on the control leaves, and values of 16.7 and 13.6 mm^2, respectively, were reached on leaves treated with the peptides PS1-70 and PS1-120 at a concentration of 100 pM, and values of 12 and 11.8 mm^2 were reached on leaves treated with said peptides at a concentration of 100 fM (FIG. 12D). Similar results were obtained on olive trees.

[4] = test system: CAT2, SAM and APX2 genes; test: Salt stress gene expression in tomato plants irrigated with 100 fM peptides; assay type: in vivo; conditions: femtomolar; for activation of salt stress-responsive genes: 8 days after irrigation, 0 mM NaCl (FIG. 18A1, B1, C1); for tolerance to salt / induction of responsive genes: irrigated 7 days with 150 mM NaCl (FIG. 18A2, B2, C2)
Protocol: The analysis was carried out on the CAT2(A), SAM (B) and APX2 (C) genes. The asterisks indicate the statistical significance of the data by Student's t-test (*p<0.05; **p<0.01; ***p<0.001). […] An experiment was also set up to verify the efficiency of the peptides PS1-70, PS1-120 and SEQ ID NO.5, when administered at femtomolar concentrations, in promoting tolerance to a high salt stress condition.

[5] = test system: Alternaria alternata; test: Alternaria alternata necrosis areas on treated tomato leaves; assay type: in vivo; conditions: 100 fM
Protocol: For the performance of assays on the phytopathogenic Botrytis cinerea and Alternaria alternata fungi, the present inventors used spores of this microorganism obtained from cultures on solid PDA (Potato Dextrose Agar) sporulation substrate. The plates were inoculated with 20 μl of a conidial suspension at a concentration of 1×10^6 spores/ml and incubated for 15 days at 25° C. in the presence of diffused light, so as to obtain complete sporulation. The spores were then collected in 5 ml of sterile water and, in order to remove the mycelium, were filtered through glass wool, washed with sterile distilled water and collected by centrifugation at room temperature. The concentration of spores suitable for inoculation (10^5-10^7 spores/ml) was determined by the serial dilution method using a Burker cell counting chamber for spore counting.
The assay was carried out on a detached leaf by taking a compound leaf for each treated tomato plant and for each control plant. Each leaflet of the compound leaf was marked with 3 markers in order to guide the subsequent application of the spores and detection of the pathogen developing necrotic areas.
The present inventors also performed assays aimed at determining the effects of exogenous application of the peptides of the invention on tomato plants against the development of the necrotrophic Alternaria alternata fungus (FIG. 14).
The positive effect of the treatment was statistically significant from day 1 of inoculation of the pathogen to day 8 where values of 24 mm^2 were reached on the control leaves, unlike the treated leaves where values of 8.4 and 8.0 mm^2 were recorded on leaves treated with the peptides PS1-70 and PS1-120 at a concentration of 100 fM (FIG. 14A); and values of 17 mm^2 were recorded on the control leaves and values of 8.3 mm^2, 7.9 mm^2, 8.9 mm^2, and 7.8 mm^2 were recorded on leaves treated with the peptides PS1-70, SEQ ID NO.8, SEQ ID NO.3 and SEQ ID NO.5, respectively, at a concentration of 100 fM (FIG. 14B).

[6] = Biometric parameters of tomato plants irrigated with peptides; assay type: in vivo; conditions: 100 fM; for root surface (root area): 14 days of salt stress 150 mM, 15 days after irrigation (FIG. 20A); for growth (fresh weight) of the aerial part: absence of salt (FIG. 20B)
Protocol: FIG. 20 illustrates the effect of irrigation treatment with the peptides PS1-70, PS1-120 and SEQ ID NO.5 at a concentration of 100 fM on the biometric parameters of the tomato plant. […] The asterisks indicate the statistical significance of the data by Student's t-test (*p<0.05). A few biometric parameters are shown in FIG. 20, measured after 14 days of continuous salt stress (150 mM) and 15 days after irrigation with the peptides PS1-70, PS1-120 and SEQ ID NO.5 at 100 fM concentrations, and the respective controls.

[7] = test system: cat1, tft1, Sam, HSFA2, HSP70, HSP90, MPK1 and WRKY40 genes; test: Salt stress gene expression in tomato plants irrigated with 100 pM peptide; assay type: in vivo; conditions: 100 pM irrigation
Protocol: The analysis was carried out on the cat1, tft1, Sam, HSFA2, HSP70, HSP90, MPK1 and WRKY40 genes. The asterisks indicate the statistical significance of the data by Student's t-test (*p<0.05; **p<0.01; ***p<0.001).
An experiment was also set up to verify the efficiency of the peptides PS1-70, PS1-120 and SEQ ID NO.5, when administered at femtomolar concentrations, in promoting tolerance to a high salt stress condition.

[8] = day 8, control 24 mm^2 (FIG. 14A)

Molecule | direct toxic effect on survival and development of larvae [1] | growth of the B. cinerea fungus [2] | necrosis areas ([3]; 100 pM) [mm^2] | necrosis areas ([3]; 100 fM) [mm^2] | activation of salt stress-responsive genes [4] | tolerance to salt / induction of responsive genes [4] | necrosis areas [5, 8] [mm^2] | root surface (root area) [6] | growth (fresh weight) of the aerial part [6] | necrosis areas ([5]; day 8, control 17 mm^2 (FIG. 14B)) [mm^2] | activation of salt stress-responsive genes and transcription factors ([7]; 48 hours, 0 mM NaCl (FIG. 17A)) | tolerance to salt / induction of responsive genes ([7]; moderate salt stress 80 mM NaCl (FIG. 17B))
B1 | no effect on their survival and development | not disrupted | 6.0 | 4.10 | able to activate a series of salt stress-responsive genes | more salt-tolerant than the untreated control plants | 8.0 | greater root surface | able to promote the growth of the aerial part of the plant | – | – | –
B2 | no effect on their survival and development | not disrupted | 8.4 | 6.2 | able to activate a series of salt stress-responsive genes | more salt-tolerant than the untreated control plants | 8.4 | greater root surface | able to promote the growth of the aerial part of the plant | 8.3 | able to activate a series of genes and transcription factors responsive to salt stress | more tolerant to salt than the untreated control plants

— patent US20230270119A1, “BIOSTIMULANT AND BIOPROTECTIVE PEPTIDES AND THEIR USE IN AGRICULTURE” (priority 2020, published 2023)
